From publication PMC8703375, “Polar Interactions at the Dimer–Dimer Interface of Methionine Adenosyltransferase MAT I Control Tetramerization” (International Journal of Molecular Sciences, 2021) come the findings set out here.

Sequences and labels used below:
B1: wild-type MATα1 (SSRL), rat methionine adenosyltransferase catalytic subunit (enzyme)
chain: not shown
notes: methionine adenosyltransferase catalytic subunit MATα1, rat; the rat MATα1 ORF in plasmid pSSRL-T7N; Found as homo-dimers (MAT III) and homo-tetramers (MAT I) in an equilibrium that depends on protein concentration; also called MAT I (homo-tetramer); MAT III (homo-dimer); source: E. coli BL21(DE3), IPTG-induced, in soluble fraction
B2: MATα1 R85L–T63V double mutant (enzyme)
chain: not shown
notes: methionine adenosyltransferase catalytic subunit MATα1, rat; ORF of pSSRL-T7N with two point mutations; source: E. coli BL21(DE3), IPTG-induced, in soluble fraction
B3: MATα1 R85L mutant (enzyme)
chain: not shown
notes: methionine adenosyltransferase catalytic subunit MATα1, rat; ORF of pSSRL-T7N with a point mutation; source: E. coli BL21(DE3), IPTG-induced, in soluble fraction
B4: MATα1 E112L mutant (enzyme)
chain: not shown
notes: as for B3
B5: MATα1 Q81T mutant (enzyme)
chain: not shown
notes: as for B3
B6: MATα1 T63V mutant (enzyme)
chain: not shown
notes: as for B3
B7: MATα1 R85E mutant (enzyme)
chain: not shown
notes: as for B3
B8: MATα1 R85L–E112L double mutant (enzyme)
chain: not shown
notes: as for B2
B9: MATα1 N106A mutant (enzyme)
chain: not shown
notes: as for B3

“And” between values parts separate entries of the source, which are not always exact repeats. Equal values may be shown once.

One data set deals with the molecule itself. Kind of data set: SEC; analytical gel filtration (AGFC): soluble fractions of E. coli at 0.5 mg/mL (100 µL) on Superose 12 10/30 HR in 50 mM Tris/HCl pH 8, 10 mM MgSO4, 1 mM EDTA, 150 mM KCl, 0.3 mL/min; fractions read by dot-blot with anti-MATα1 antiserum; homo-dimers and homo-tetramers separated by size. (In gel filtration, larger molecules generally elute earlier.)
The stoichiometry N is a count of units in the complex or per binding partner. With B1, the “stoichiometry N” value was 2 and 4.

A further data set deals with the molecule itself. Kind of data set: hydrophobic chromatography on phenyl Sepharose; soluble fractions of E. coli at 0.5 mg/mL (2 mL) on phenyl Sepharose in 50 mM Tris/HCl pH 8, 10 mM MgSO4, 1 mM EDTA; tetramers in the flowthrough, dimers eluted with 50% (v/v) DMSO; dot-blot with anti-MATα1 antiserum, dimer/tetramer ratio by densitometry.
Regarding B2, the “stoichiometry N” value was 2.

Consider B3, for which the “stoichiometry N” value is 2 and 4.

With B4, the “stoichiometry N” value is 4.

For B5, the “stoichiometry N” value stood at 4.

Consider B6, for which the “stoichiometry N” value was determined as 2.

For B7, the “stoichiometry N” value came to 2.

For the protein B8, the “stoichiometry N” value worked out at 2.

For the protein B9, the “stoichiometry N” value is 4.
